Measured values reported in patent US7067109.

Molecular target: anti-VCAM-1•tTF coaguligand (anti-VCAM-1 antibody covalently linked through SMPT to truncated tissue factor) (human) (UniProt P13726)
Experiment: 125I-labeled 10H10 on anti-VCAM-1•tTF-treated IL-1α-activated bEnd.3 cells

Sequence of UniProt P13726 (P13726 other isoform, or with tags, fused parts or gaps): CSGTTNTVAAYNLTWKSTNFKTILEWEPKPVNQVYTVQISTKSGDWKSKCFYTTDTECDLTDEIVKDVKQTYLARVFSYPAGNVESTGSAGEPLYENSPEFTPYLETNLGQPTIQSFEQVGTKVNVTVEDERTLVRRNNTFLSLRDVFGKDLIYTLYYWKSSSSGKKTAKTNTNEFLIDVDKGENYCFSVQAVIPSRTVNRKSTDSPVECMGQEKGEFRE

“10H10, mouse monoclonal antibody against human tissue factor” showed an amount of antibody bound to the cells at saturation of 8.7 fmol and a molecules of antibody bound per cell at saturation (molecules per cell) of 540000.
